Consider 29 molecules from patent US8357523B2, “Beta-glucosidase variant enzymes and related polynucleotides” (Codexis, Inc., priority 2009, dated 2013).

Numbering of substitutions follows the chain as printed.

B1: 398 (protein)
chain: SARITQEGAAPAAMLHPEKWPRPATQRLIDPAVEKRVDALLKQLSVEEKVGQVIQGDIGTITPEDLRKYPLGSILAGGDSGPNGDDRAPPKEWLDLADAFYRVSLEKRPGHTPIPVLFGIDAVHGHNNIGSATIFPHNIALGMTRDPELLRRIGEVTAEEMAATGIDWTFAPALSVPRDDRWGRTYEGFSEDPEIVASYSAAIVEGFQGKYGTKDFMAPGRAVACAKHFLADGGTDQGRDQGDARISEDELIRIHNAGYPPAIDAGVLTVMASFSSWQGIKHHGHKQLLTDVLKGQMGFNGFIVGDWNAHDQVPGCTKFNCPTSLIAGLDMYMAADSWKQLYENTLAQVKDGTIPMARLDDAVRRILRVKVLAGLFEKPAPKDRPGLPGLETLGSPEHRAVGREAVRKSLVLLKNDKGTLPLSPKARVLVAGDGADNIGKQSGGWTISWQGTGNRNDEFPGATSILGGIRDAVADAGGSVEFDVAGQYKTKPDVAIVVFGEEPYAEFRGDVETLEYQPDQKQDLTLLKKLKDQGIPVVAVFLSGRPMWVNPELNASDAFVAAWLPGTEGGGVADVLFTDKAGKVQHDFAGKLSYSWPRTAAQTTVNRGDADYNPLFAYGYGLTYKDKSKVGTLPEESGVPAEARQNAGIYFRAGALRLPGRFL
modifications: truncated; signal peptide F-10T
B2: 418 (protein)
chain: B1 chain with A13P, P177V, I203Y, T213S, A400T
modifications: truncated; signal peptide F-10T, N-5H
B3: 415 (protein)
chain: B1 chain with R3A, A13P, N128H, T213S, E502N, R508Q
modifications: truncated; signal peptide F-10T
B4: 400 (protein)
chain: B1 chain with R3A, P177V, I203Y, T213S, M356T, N646K
modifications: truncated; signal peptide F-10T
B5: 421 (protein)
chain: B1 chain with R3A, P109D, T213S, A400T, E502N, H586Y
modifications: truncated; signal peptide F-10T
B6: 417 (protein)
chain: B1 chain with R3A, T213S, R508Q
modifications: truncated; signal peptide F-10T
B7: 409 (protein)
chain: B1 chain with R3A, P109D, P147T, T213S, T525S
modifications: truncated; signal peptide F-10T
B8: 404 (protein)
chain: B1 chain with R3A, A13P, P109D, N128K, T213S, P597A
modifications: truncated; signal peptide F-10T
B9: 408 (protein)
chain: B1 chain with R3A, A13P, P147T, T213S, A226G, H586Y
modifications: truncated; signal peptide F-10T
B10: 402 (protein)
chain: B1 chain with A13P, P147T, I203Y, T213S, T525S, H586Y
modifications: truncated; signal peptide F-10T, K-21R
B11: 425 (protein)
chain: B1 chain with P147T, T213S, A400T, E502N
modifications: truncated; signal peptide F-10T
B12: 399 (protein)
chain: B1 chain with P109D, T213S, M356T
modifications: truncated; signal peptide F-10T
B13: 410 (protein)
chain: B1 chain with R3A, T213S, E502N, T525S
modifications: truncated; signal peptide F-10T
B14: 412 (protein)
chain: B1 chain with R3A, T213S, E502N, R508Q
modifications: truncated; signal peptide F-10T
B15: 413 (protein)
chain: B1 chain with A13P, P147T, T213S, E502N, H586Y
modifications: truncated; signal peptide F-10T
B16: 416 (protein)
chain: B1 chain with R3A, P109D, T213S, D351E, H586Y
modifications: truncated; signal peptide F-10T
B17: 424 (protein)
chain: B1 chain with R3A, A13P, V204I, T213S, D291G
modifications: truncated; signal peptide F-10T
B18: 426 (protein)
chain: B1 chain with R3A, T213S, A400T
modifications: truncated; signal peptide F-10T
B19: 423 (protein)
chain: B1 chain with R3A, P109D, T213S, A400T
modifications: truncated; signal peptide F-10T
B20: 405 (protein)
chain: B1 chain with R3A, A13P, T213S, A400T, H586Y
modifications: truncated; signal peptide F-10T
B21: 406 (protein)
chain: B1 chain with A13P, P147T, E159G, T213S
modifications: truncated; signal peptide F-10T
B22: 407 (protein)
chain: B1 chain with R3A, P109D, P147T, T213S, E502N, H586Y
modifications: truncated; signal peptide F-10T
B23: 427 (protein)
chain: B1 chain with R3A, N128H, T213S, E502N, H586Y
modifications: truncated; signal peptide F-10T
B24: 419 (protein)
chain: B1 chain with P109D, P147T, T213S, H586Y
modifications: truncated; signal peptide F-10T
B25: 422 (protein)
chain: B1 chain with R3A, A13P, P147T, T213S, A400T, E502N, R508Q
modifications: truncated; signal peptide F-10T
B26: 411 (protein)
chain: B1 chain with R3A, T213S, L372S
modifications: truncated; signal peptide F-10T
B27: 403 (protein)
chain: B1 chain with R3A, A13P, P109D, T213S
modifications: truncated; signal peptide F-10T
B28: 414 (protein)
chain: B1 chain with P177V, I203Y, T213S, A400T, E502N, T525S
modifications: truncated; signal peptide F-10T
B29: 401 (protein)
chain: B1 chain with R3A, T25A, N128H, I203Y, T213S, T525S
modifications: truncated; signal peptide F-10T

This series in a line: High throughput cellobiose assay: fold improvement in cellobiase activity of CelA variants over a control enzyme (Tables 2A-2D, 3, 5, 6, 7). The format is biochemical. Particulars: 3.3 g/l cellobiose, 65° C. and pH 5 (incubation overnight); relative to Control #5, Variant No. 366 (SEQ ID NO: 9).
Consider B1, for which the “Fold Improvement over Control Variant” value was “++ (++ = 1.1 to 2.0 fold improvement over control Variant No. 366)”. In the case of B2, the “Fold Improvement over Control Variant” value is on record as “++ (++ = 1.1 to 2.0 fold improvement over control Variant No. 366)”. The result for B3 reads “++ (++ = 1.1 to 2.0 fold improvement over control Variant No. 366)”; that for B4, “++ (++ = 1.1 to 2.0 fold improvement over control Variant No. 366)”; that for B5, “++ (++ = 1.1 to 2.0 fold improvement over control Variant No. 366)”. Take B6: the “Fold Improvement over Control Variant” value was “++ (++ = 1.1 to 2.0 fold improvement over control Variant No. 366)”. With B7 the entry was “+++ (+++ = 2.1 to 3.0 fold improvement over control Variant No. 366)”.

For the molecule B8, the “Fold Improvement over Control Variant” value is on record as “++ (++ = 1.1 to 2.0 fold improvement over control Variant No. 366)”. With B9 the entry was “+++ (+++ = 2.1 to 3.0 fold improvement over control Variant No. 366)”; with B10, “++ (++ = 1.1 to 2.0 fold improvement over control Variant No. 366)”; with B11, “+++ (+++ = 2.1 to 3.0 fold improvement over control Variant No. 366)”. With B12 the entry was “++ (++ = 1.1 to 2.0 fold improvement over control Variant No. 366)”; with B13, “+++ (+++ = 2.1 to 3.0 fold improvement over control Variant No. 366)”. The result for B14 reads “+++ (+++ = 2.1 to 3.0 fold improvement over control Variant No. 366)”.

In the case of B15, the “Fold Improvement over Control Variant” value is recorded as “+++ (+++ = 2.1 to 3.0 fold improvement over control Variant No. 366)”. With B16, the “Fold Improvement over Control Variant” value is reported as “++ (++ = 1.1 to 2.0 fold improvement over control Variant No. 366)”. The result for B17 reads “++ (++ = 1.1 to 2.0 fold improvement over control Variant No. 366)”; that for B18, “++ (++ = 1.1 to 2.0 fold improvement over control Variant No. 366)”.

In the case of B19, the “Fold Improvement over Control Variant” value is listed as “++ (++ = 1.1 to 2.0 fold improvement over control Variant No. 366)”. With B20 the entry was “++ (++ = 1.1 to 2.0 fold improvement over control Variant No. 366)”; with B21, “++ (++ = 1.1 to 2.0 fold improvement over control Variant No. 366)”; with B22, “+++ (+++ = 2.1 to 3.0 fold improvement over control Variant No. 366)”. Regarding B23, the “Fold Improvement over Control Variant” value is listed as “++ (++ = 1.1 to 2.0 fold improvement over control Variant No. 366)”. On to B24, for which the “Fold Improvement over Control Variant” value was “++ (++ = 1.1 to 2.0 fold improvement over control Variant No. 366)”. B25: the “Fold Improvement over Control Variant” value is on record as “+++ (+++ = 2.1 to 3.0 fold improvement over control Variant No. 366)”. With B26 the entry was “++ (++ = 1.1 to 2.0 fold improvement over control Variant No. 366)”. The result for B27 reads “++ (++ = 1.1 to 2.0 fold improvement over control Variant No. 366)”. The result for B28 reads “++ (++ = 1.1 to 2.0 fold improvement over control Variant No. 366)”. In the case of B29, the “Fold Improvement over Control Variant” value is recorded as “++ (++ = 1.1 to 2.0 fold improvement over control Variant No. 366)”.
